Patent US20210284724A1 (I MAB BIOPHARMA US, published 2021)
Numbering of substitutions follows the chain as printed. One block for each binder: values may come before it.

What was measured:
human CXCL13 [1] = molecular target: T1, human CXCL13 (human, UniProt O43927 23-109); experiment: ELISA binding, Fab
T1 construct: also called huCXCL13; rhCXCL13
T1 sequence (looked up): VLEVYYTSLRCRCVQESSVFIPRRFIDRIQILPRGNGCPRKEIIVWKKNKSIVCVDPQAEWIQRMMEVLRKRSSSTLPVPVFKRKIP

human CXCL13 F20A [2] = molecular target: T2, human CXCL13 F20A (human, UniProt O43927 23-109); experiment: alanine scan, flow cytometry
T2 construct: mature; 87 residues fits the mature chain
T2 sequence (looked up): T1 sequence (looked up) with F20A
Protocol: (§1) Cells were transfected with different WT construct or […] mutant construct which each amino acid was mutant to alanine, totally 87 amino acids. Then, binding of the test Fab to each mutant clone in the alanine scanning library was determined, in duplicate, by high-throughput flow cytometry. For each point, background fluorescence was subtracted from the raw data, which were then normalized to Fab reactivity with WT target protein. For each mutant clone, the mean binding value was plotted as a function of expression (represented by control reactivity). To identify preliminary primary critical clones (red circles), a threshold (dashed lines) of >70% WT binding to control Ab and <20% WT binding to test Fab was applied.

human CXCL13 [3] = molecular target: T1, human CXCL13; experiment: SPR Biacore, off-rate ranking of Fabs
human CXCL13 [4] = molecular target: T1, human CXCL13; experiment: SPR Biacore 8K, Fab over immobilised CXCL13
Protocol: HuCXCL13 binding affinity by Surface Plasmon Resonance. 411A11E9, 415A3D1, 64C10G1, 21H12D9, 329F2E1, 71F4A3 were selected to produce Fab and tested binding affinity. The binding of the antibodies to huCXCL13 was examined by Biacore 8K. 10 mM HEPES, 150 mM NaCl, 3 mM EDTA, 0.05% Tween-20, pH 7.4 served as running buffer and 10 mM glycine-HCl, pH2.0 served as regeneration buffer. CXCL13 protein was immobilized on Sensor Chip CM5 using amine coupling method (immobilization level ˜30RU). The serial concentrations of Fab (0-16 nM) were injected over immobilized CXCL13 at the flow rate of 30 μl/min. The dissociation phases were 600s.

human CXCL13 [5] = molecular target: T1, human CXCL13; experiment: SPR Biacore 8K, Fab over immobilised CXCL13; remark: listed apart in the source
Procedure, shortened: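 Surface plasmon resonance: CXCL13 amine-coupled to CM5 chip at ~250 RU, humanized Fabs injected at 0–20 nM, 30 μl/min, in HEPES-buffered saline with EDTA and Tween-20, pH 7.4. Dissociation 600 s; regeneration with glycine-HCl pH 2.0.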

human CXCL13 [6] = molecular target: T1, human CXCL13; experiment: cell-based blocking assay, CXCL13 to CXCR5 cells
Procedure, shortened: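 The IC50 of the humanized Fabs was taken from a titration series. Each dilution was pre-incubated for 30 min at room temperature with an equal volume of human CXCL13 at 0.3 μg/ml, and 100 μl was then added for 30 min to fixed, blocked CHO-K1 cells expressing CXCR5 (5×10⁴/well). After three PBST washes, bound CXCL13 was captured with 3 μg/ml human anti-CXCL13 antibody, detected with anti-human Fc-HRP and read at 450 nm.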

human CXCL13 F20A [7] = molecular target: T2, human CXCL13 F20A; experiment: alanine scan, flow cytometry on transfected cells
Protocol: as §1
(§2) We draw the crystal structure diagram in the FIG. 8B, and the critical residues for 64C10G1 Fab binding were visualized and shown on this crystal structure.

human CXCL13 P22A = molecular target: T3, human CXCL13 P22A (human, UniProt O43927 23-109); experiment: alanine scan, flow cytometry on transfected cells
T3 construct: mature; 87 residues fits the mature chain
T3 sequence (looked up): T1 sequence (looked up) with P22A
Protocol: as §1, §2

human CXCL13 R24A = molecular target: T4, human CXCL13 R24A (human, UniProt O43927 23-109); experiment: alanine scan, flow cytometry on transfected cells
T4 construct: mature; 87 residues fits the mature chain
T4 sequence (looked up): T1 sequence (looked up) with R24A
Protocol: as §1, §2

human CXCL13 F25A = molecular target: T5, human CXCL13 F25A (human, UniProt O43927 23-109); experiment: alanine scan, flow cytometry on transfected cells
T5 construct: mature; 87 residues fits the mature chain
T5 sequence (looked up): T1 sequence (looked up) with F25A
Protocol: as §1, §2

human CXCL13 [8] = molecular target: T1, human CXCL13; experiment: SPR Biacore T200
human CXCL13 [9] = molecular target: T1, human CXCL13; experiment: SPR Biacore T200; remark: listed apart in the source
Protocol: In the second approach, mutations were carried out by multiple libraries including 4 different sub libraries, such as saturated mutation libraries by CDR walking for CDR L1, CDR L3, CDR H3 or CDR L2, CDR H1, CDR H2 and saturated mutation libraries by three aa mutated continuously for CDR H3 or CDR L3. After finishing construction of phage sub libraries, antigen CXCL13 screening followed. Antibodies of these sequences were generated, and affinity testing was performed by Biacore T200. To further optimize the antibodies, the lead clones were then back mutated to its humanized counterpart one aa by one aa. Sequences were generated and synthesized for antibodies. Affinity was tested by Biacore T200.

human CXCL13 [10] = molecular target: T1, human CXCL13; experiment: SPR Biacore T200; remark: listed apart in the source
Protocol: To further optimization of 71F4-B, each Mutations in 71F4A3 useful for improving binding (Kon) were added into 71F4-B, the sequences were listed in Table 28. Antibodies according to these sequences were generated and affinity testing was performed by Biacore T200.

EC50 (human CXCL13 [1]): 1.71 nM | binding result (human CXCL13 F20A [2]): no binding (tested: <20% WT binding) | Kd (human CXCL13 [3]): 0.814 nM | koff (human CXCL13 [3]): 0.00218 s⁻¹ | kon (human CXCL13 [3]): 2.68e+06 M⁻¹ s⁻¹ | Kd (human CXCL13 [4]): 0.178 nM | koff (human CXCL13 [4]): 0.0005 s⁻¹ | kon (human CXCL13 [4]): 2.81e+06 M⁻¹ s⁻¹ | Kd (human CXCL13 [5]): 0.814 nM | koff (human CXCL13 [5]): 0.00218 s⁻¹ | kon (human CXCL13 [5]): 2.68e+06 M⁻¹ s⁻¹ | IC50 (human CXCL13 [6]): 7.22 nM | Binding reactivity (% WT) (human CXCL13 F20A [7]): 9.4 % WT | Binding reactivity (% WT) (human CXCL13 P22A): 14.8 % WT | Binding reactivity (% WT) (human CXCL13 R24A): -3.3 % WT | Binding reactivity (% WT) (human CXCL13 F25A): -3.2 % WT
B1: 64C10G1 chimeric Fab (Fab, V domains shown)
VH: EVQLVESGGGLVKPGGSLKLSCAASGFTFSSYAMSWVRQTPEKRLEWVATISDGGSDAYYPDNVKGRFTISRDNAKNNLYLQMSHLKSEDTAMYYCARDYYGSGYEDSPMDYWGQGTSVTVSS
VL: DIQMTQSPSSLSASLGGKVTITCKASQDINKYIAWYQHKPGKGPRLLIHYTSTLQPGIPSRFSGSGSGRDYSFSISNLEPEDFATYYCLQYDNLYTFGGGTKLEIK
notes: Fab; also called 64C10G1 Fab

Kd (human CXCL13 [8]): < 1 nM | Kd (human CXCL13 [9]): 0.195 nM | koff (human CXCL13 [9]): 3.57e-05 s⁻¹ | kon (human CXCL13 [9]): 183000 M⁻¹ s⁻¹ | Kd (human CXCL13 [10]): 0.36 nM | koff (human CXCL13 [10]): 6.59e-05 s⁻¹ | kon (human CXCL13 [10]): 183000 M⁻¹ s⁻¹
B2: 71F4-B (antibody, V domains shown)
VH: EVQLVESGGGLVQPGGSLRLSCAASGIDFSRYWMSWVRQAPGKGLEWVAEINPESSTINYAPSLKDRFTISRDNAKNSLYLQMNSLRAEDTAVYYCARQDDYEYYTMDYWGQGTTVTVSS
VL: DIQMTQSPSSLSASVGDRVTITCKVSQDVNTGVAWYQQKPGKAPKLLIYSASYRYTGVPSRFSGSGSGTDFTFTISSLQPEDIATYYCQQYYSTPLTFGGGTKLEIK
notes: also called 71F4A3-B
